From ChEMBL document CHEMBL2074286, “Active transport of the angiotensin-II antagonist losartan and its main metabolite EXP 3174 across MDCK-MDR1 and caco-2 cell monolayers” (Br J Pharmacol, 2000)

Key:
[1] = system: CCCCc1nc(Cl)c(CO)n1Cc1ccc(-c2ccccc2-c2nn[nH]n2)cc1; test: TP_TRANSPORTER: transepithelial transport (basal to apical) in MDR1-expressing MDCK cells; type: functional, cell-based
[2] = system: CCCCc1nc(Cl)c(CO)n1Cc1ccc(-c2ccccc2-c2nn[nH]n2)cc1; test: TP_TRANSPORTER: transepithelial transport (basal to apical) in Caco-2 cells; type: functional, cell-based

ATP-dependent translocase ABCB1 (Homo sapiens)
Km [1]: 403 µM
Km [2]: 232 µM
